Results published in patent US7781394B2, “Methods for identifying anti-tumor and/or anti-angiogenesis drugs with deoxynucleoside 5′-monophosphate N-glycosidase as the target” (Institut Pasteur, priority 2006, dated 2010).

What was measured:
Rat1a-MYC cells = experiment: In vitro growth of Rat1a-MYC cells overexpressing dominant negative Rcl E93A; assay type: cell-based, rat; conditions: Rat1a-MYC cells overexpressing the mutant
Excerpt: (§1) In addition to the studies on RCL (C6orf108) gain-of-function in tumorigenesis, we determined the effect of loss of RCL function on tumorigenesis with the Rat1a-Myc cells. We generated control Rat1a-MYC cells and Rat1a-MYC cells that overexpress the dominant negative Rcl E 93A mutant. Two independent control transfected cell pools and two independent Rcl E 93A Rat1a-MYC transfectant cell pools were studied (FIG. 7).

[1] = system: Rat1a-MYC cell xenografts; experiment: Nude mouse xenografts of Rat1a-MYC-Rcl-E93A cells, tumorigenicity; assay type: in vivo; conditions: two independent cell pools
Excerpt: FIG. 7A. Immunoblot showing expression of Rcl-E93A protein in 293T cells; pPURO (pBabe-Puro) represents control transfected cells; none=untransfected cells. B. Immunoblot showing expression of Rcl and Rcl-E 93A in Rat1a-MYC cells (which have high levels of endogenous Rcl). Numbers at the top represents different cell pools. Numbers at the bottom represents normalized relative expression. C. Agarose gel showing expression of Rcl-E93A mRNA in transfectants by RT-PCR of control pPURO or Rcl-E93A expressing Rat1a-MYC cell pools. Signals are dependent on reverse transcriptase (not shown) D. Tumor sizes of pBABE (pools 1 and 2) control Rat1a-Myc cell pools compared with RCL E93A expressing Rat1a-MYC cell pools (E93A#1+E93A#4). Average tumor sizes determined by caliper are shown for groups of nine animals. Error bars are standard deviations.
as §1

B1: Rcl E 93A: dominant negative RCL mutant, Glu-93 replaced by Ala, overexpressed in Rat1a-MYC cells (protein, UniProt O35820 2-163, looked up, variant E93A)
5-hydroxymethyl-dUMP …: AASGEQAPCSVYFCGSIRGGREDQALYARIVSRLRRYGKVLTEHVADAELEPLGEEAAGGDQFIHEQDLNWLQQADVVVAEVTQPSLGVGYALGRAVALGKPILCLFRPQSGRVLSAMIRGAADGSRFQVWDYAEGEVETMLDRYFEAYLPQKTASSSHPSA
Question: With B1 as the molecule, how does the “effect on growth rates in vitro” value (Rat1a-MYC cells) read?
Answer: Its value is “does not affect growth rates”.

Question: What about the “tumorigenicity of xenografts versus control cell pools” value [1] of the same molecule?
Answer: The value was “remarkable decrease in tumorigenicity”.
